Changes are numbered by the printed parent chain. Names and notes keep the numbering of the source.
Legend:
SPD_0839 = SPD_0839 (Streptococcus pneumoniae, UniProt A0A0H2ZP99); test: isothermal titration calorimetry; format: binding
[1] = molecular target: the molecule itself; test: nanoparticle tracking analysis; NanoSight NS300, samples diluted with PBS, 25 °C; particle concentration of PLY and its mutants
[2] = molecular target: the molecule itself; test: native gel or EMSA; native gel of purified PLY and its mutants; oligomeric and monomeric forms marked by arrows
[3] = molecular target: the molecule itself; test: SDS-PAGE without β-mercaptoethanol + Western blot; 1 µg Ply or mutant incubated with 125 µM crotonyl-CoA at 25 °C for 16 h; SDS loading buffer without β-mercaptoethanol, 55 °C for 10 min; 6 % SDS-PAGE; anti-Ply Western blot

SPD_0839, sequence (A0A0H2ZP99 entry or part of it): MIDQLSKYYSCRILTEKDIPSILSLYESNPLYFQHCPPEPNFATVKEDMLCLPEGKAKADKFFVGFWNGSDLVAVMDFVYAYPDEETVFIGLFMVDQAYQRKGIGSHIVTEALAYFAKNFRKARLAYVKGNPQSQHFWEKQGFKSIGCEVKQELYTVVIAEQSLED

C/C=C/C(=O)SCCNC(=O)CCNC(=O)[C@H](O)C(C)(C)COP(=O)(O)OP(=O)(O)OC[C@H]1O[C@@H](n2cnc3c(N)ncnc32)[C@H](O)[C@@H]1OP(=O)(O)O [CrCoA] gave a Kd (SPD_0839) of 1 µM.

With CC(=O)SCCNC(=O)CCNC(=O)[C@H](O)C(C)(C)COP(=O)(O)OP(=O)(O)OC[C@H]1O[C@@H](n2cnc3c(N)ncnc32)[C@H](O)[C@@H]1OP(=O)(O)O [AcCoA] the Kd (SPD_0839) was 10.4 µM.

B1: pneumolysin (PLY), wild type (natural protein, Streptococcus pneumoniae D39, UniProt Q04IN8 1-471, looked up)
chain: MANKAVNDFILAMNYDKKKLLTHQGESIENRFIKEGNQLPDEFVVIERKKRSLSTNTSDISVTATNDSRLYPGALLVVDETLLENNPTLLAVDRAPMTYSIDLPGLASSDSFLQVEDPSNSSVRGAVNDLLAKWHQDYGQVNNVPARMQYEKITAHSMEQLKVKFGSDFEKTGNSLDIDFNSVHSGEKQIQIVNFKQIYYTVSVDAVKNPGDVFQDTVTVEDLKQRGISAERPLVYISSVAYGRQVYLKLETTSKSDEVEAAFEALIKGVKVAPQTEWKQILDNTEVKAVILGGDPSSGARVVTGKVDMVEDLIQEGSRFTADHPGLPISYTTSFLRDNVVATFQNSTDYVETKVTAYRNGDLLLDHSGAYVAQYYITWDELSYDHQGKEVLTPKAWDRNGQDLTAHFTTSIPLKGNVRNLSVKIRECTGLAWEWWRTVYEKTDLPLVRKRTISIWGTTLYPQVEDKVEND
notes: pneumolysin (PLY) of Streptococcus pneumoniae serotype 2 strain D39; also called wild-type PLY; WT PLY
B1: binds [1].

B2: pneumolysin (PLY) K171R (natural protein, Streptococcus pneumoniae D39, UniProt Q04IN8 1-471, looked up)
chain: B1 chain with K171R
notes: pneumolysin (PLY) of Streptococcus pneumoniae serotype 2 strain D39 with K171R
B2: binds [1].

B3: pneumolysin (PLY) K164R (natural protein, Streptococcus pneumoniae D39, UniProt Q04IN8 1-471, looked up)
chain: B1 chain with K164R
notes: pneumolysin (PLY) of Streptococcus pneumoniae serotype 2 strain D39 with K164R
B3: binds [2].

B4: crotonylated pneumolysin (PLY incubated with crotonyl-CoA) (natural protein, Streptococcus pneumoniae D39, UniProt Q04IN8 1-471, looked up)
chain: B1 chain
modifications: lysine crotonylation (Kcr); K171 and K442 are the Kcr sites the paper names
notes: pneumolysin (PLY) of Streptococcus pneumoniae serotype 2 strain D39; also called crotonylated PLY; source: E. coli BL21 (λDE3), purified, then incubated with 125 µM crotonyl-CoA at 25 °C for 16 h
B4: binds [3].

B5: pneumolysin (PLY) K442R (natural protein, Streptococcus pneumoniae D39, UniProt Q04IN8 1-471, looked up)
chain: B1 chain with K442R
notes: pneumolysin (PLY) of Streptococcus pneumoniae serotype 2 strain D39 with K442R
B5: binds [1].

— PMC12957837, “Crotonylation driving Streptococcus pneumoniae adaption and virulence” (Journal of Advanced Research, 2025)
